Numbered stars: 1 amine (or outer) side, 2 acyl side, 3 side chain; on linkers, the order of the positions; unused ones are H or OH. Bridge positions count the residues as written; N and C are the ends. Square brackets hold non-standard residues; d marks the D form. Ends that are not written are not given here. * marks the point of attachment. Ida = iminodiacetic acid, O=C(CN(CC(=O)[*:3])[*:1])[*:2]; Dip = N[C@H](C(=O)O)C(c1ccccc1)c1ccccc1; β3hF = N[C@H](CC(=O)O)Cc1ccccc1; pGlu = O=C1CC[C@@H](C(=O)O)N1; β3hP = O=C(O)C[C@@H]1CCCN1; Isovaleryl = CC(C)CC(=O)*
T1: human ferroportin (SLC40A1) fused in frame with GFP, stably expressed in HEK293 cells (human, UniProt Q9NP59 1-571)
T1 sequence (looked up): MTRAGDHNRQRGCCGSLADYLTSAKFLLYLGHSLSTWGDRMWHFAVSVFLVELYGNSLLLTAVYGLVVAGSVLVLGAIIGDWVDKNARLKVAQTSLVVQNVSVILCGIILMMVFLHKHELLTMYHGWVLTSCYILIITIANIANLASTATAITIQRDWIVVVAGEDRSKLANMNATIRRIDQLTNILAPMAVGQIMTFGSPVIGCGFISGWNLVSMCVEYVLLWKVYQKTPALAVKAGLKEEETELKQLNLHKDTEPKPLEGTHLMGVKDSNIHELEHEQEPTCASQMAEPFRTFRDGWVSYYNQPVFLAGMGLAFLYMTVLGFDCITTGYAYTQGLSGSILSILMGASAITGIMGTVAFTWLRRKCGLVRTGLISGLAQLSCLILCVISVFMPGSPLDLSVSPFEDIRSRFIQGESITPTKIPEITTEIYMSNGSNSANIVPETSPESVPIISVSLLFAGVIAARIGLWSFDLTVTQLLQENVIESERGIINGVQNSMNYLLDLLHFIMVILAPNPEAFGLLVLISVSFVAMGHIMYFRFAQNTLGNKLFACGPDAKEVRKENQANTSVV

B1: Hy-[pGlu]-THFPCRKF-NH2 (peptide)
peptide: [pGlu]THFPCRKF-NH2
SMILES: C[C@@H](O)[C@H](NC(=O)[C@@H]1CCC(=O)N1)C(=O)N[C@@H](Cc1c[nH]cn1)C(=O)N[C@@H](Cc1ccccc1)C(=O)N1CCC[C@H]1C(=O)N[C@@H](CS)C(=O)N[C@@H](CCCNC(=N)N)C(=O)N[C@@H](CCCCN)C(=O)N[C@@H](Cc1ccccc1)C(N)=O

Target: T1, human ferroportin (SLC40A1) fused in …
Experiment: cell-based or functional assay

Binder	Potency EC50 (nM), ferroportin-GFP internalization/degradation [nM]	Potency: percent at the stated concentration, ferroportin-GFP internalization/degradation
B1	> 1000	
H-DTHCPIAIF-NH2 [Hy-DTHCPIAIF-NH2]	> 10000	
H-DTHFPCILY-NH2 [Hy-DTHFPCILY-NH2]		85 % at 1 uM
H-DTHFPRRFGPRSKGWVC-NH2 [Hy-DTHFPRRFGPRSKGWVC-NH2]	> 1000	
H-DTHFPCILK-NH2 [Hy-DTHFPCILK-NH2]		55 % at 1 µM
H-DTHFPCEIF-NH2 [Hy-DTHFPCEIF-NH2]	> 1000	
Isovaleryl-DTHFPCIKKEPHSKECK-NH2 (disulfide 6-16 (inferred)) [Isovaleric acid-DTHFPCIKKEPHSKECK-NH2]	> 1000	
H-DTHFPCKIF-NH2 [Hy-DTHFPCKIF-NH2]		9 % at 10 uM
H-DTKFPCIIF-NH2 [Hy-DTKFPCIIF-NH2]		60 % at 1 µM
H-DTHFPCRIF-NH2 [Hy-DTHFPCRIF-NH2, listing 1 of 2 here]		31 % at 10 uM
H-DTHFPCILF-NH2 [Hy-DTHFPCILF-NH2]		89 % at 1 µM
[Ida]TH[Dip][β3hP]CRR[β3hF]-NH2 [[IDA]-TH-[Dpa]-[bhPro]CRR-[bhPhe]-NH2]	206	
H-DTHFVCIIF-NH2 [Hy-DTHFVCIIF-NH2]		50 % at 10 uM
DTHFPCIKFKPHSKECK (N-terminal isovaleric acid; K(isoglu-Palm) at Lys 10; C-terminal amide) [Isovaleric acid-DTHFPCIKF-K(isoglu-Palm)-PHSKECK-NH2]	6	
H-ATHFPCIIF-NH2 [Hy-ATHFPCIIF-NH2]	> 1000	
Isovaleryl-DTHFPCKIFGPRSKGWECK-NH2 (disulfide 6-18 (inferred)) [Isovaleric acid-DTHFPCKIFGPRSKGWECK-NH2]	163	
H-DTHFPCIIR-NH2 [Hy-DTHFPCIIR-NH2]		62 % at 1 µM
H-DTHFPCIFGPRSKGWVC-NH2 (disulfide 6-17 (inferred)) [Hy-DTHFPCIFGPRSKGWVC-NH2]	> 1000	
H-DTHFPCIIY-NH2 [Hy-DTHFPCIIY-NH2]		75 % at 10 uM
H-DPHFPCIIF-NH2 [Hy-DPHFPCIIF-NH2]		64 % at 10 uM
H-DTHFPCIVF-NH2 [Hy-DTHFPCIVF-NH2]		75 % at 1 µM
H-DTHFPCRF-NH2 [Hy-DTHFPCRF-NH2]		31 % at 10 uM
H-DTHFPCLIF-NH2 [Hy-DTHFPCLIF-NH2]	> 10000	
H-DTHFPCVIF-NH2 [Hy-DTHFPCVIF-NH2]		81 % at 10 uM

Binder	Potency EC50 (nM), ferroportin-GFP internalization/degradation [nM]	Potency: percent at the stated concentration, ferroportin-GFP internalization/degradation
H-DTHFPCQIF-NH2 [Hy-DTHFPCQIF-NH2]	> 1000	
Isovaleryl-DTHFPCKIFGPRSKGWVCK-NH2 (disulfide 6-18 (inferred)) [Isovaleric acid-DTHFPCKIFGPRSKGWVCK-NH2]	86	
H-DTHFPCFIF-NH2 [Hy-DTHFPCFIF-NH2]	1190	
H-DTHFPCRIF-NH2 [Hy-DTHFPCRIF-NH2, listing 2 of 2 here]	> 1000	
Isovaleryl-DTHFPCRRFGPRSKGWVCK-NH2 (disulfide 6-18 (inferred)) [Isovaleric acid-DTHFPCRRFGPRSKGWVCK-NH2]	> 1000	
H-DTHFPCIKFF-NH2 [Hy-DTHFPCIKFF-NH2]		64 % at 1 µM
H-DTHFPCAIF-NH2 [Hy-DTHFPCAIF-NH2]	> 1000	
H-DTHFPCIIFAC-NH2 (disulfide 6-11 (inferred)) [Hy-DTHFPCIIFAC-NH2]	> 1000	
H-DTHFPCIIFAA-NH2 [Hy-DTHFPCIIFAA-NH2]		59 % at 1 uM
H-DTHFPCIEK-NH2 [Hy-DTHFPCIEK-NH2]		0 % at 1 µM
H-DTHFPCRIFGPRSRGWVCK-NH2 (disulfide 6-18 (inferred)) [Hy-DTHFPCRIFGPRSRGWVCK-NH2]	> 1000	
H-LTHFPCIIF-NH2 [Hy-LTHFPCIIF-NH2]		64 % at 1 µM
H-DTHFPCIIFKC-NH2 (disulfide 6-11 (inferred)) [Hy-DTHFPCIIFKC-NH2]	6400	
H-DTHFPIICI-NH2 [Hy-DTHFPIICI-NH2]	> 10000	
H-DTHFPCIIK-NH2 [Hy-DTHFPCIIK-NH2]		55 % at 1 µM
H-DTHFPCLF-NH2 [Hy-DTHFPCLF-NH2]		39 % at 1 uM
H-ETHFPCIIF-NH2 [Hy-ETHFPCIIF-NH2]		77 % at 1 µM
H-DTHFPCIIT-NH2 [Hy-DTHFPCIIT-NH2]		23 % at 1 uM
H-ADHFPCIIF-NH2 [Hy-ADHFPCIIF-NH2]	> 1000	
H-DTHKPCIIF-NH2 [Hy-DTHKPCIIF-NH2]		45 % at 10 uM
[Ida]THF[β3hP]CRR[β3hF]GPRSKGWVC-NH2 (disulfide 6-18 (inferred)) [[IDA]-THF-[bhPro]-CRR-[bhPhe]GPRSKGWVC-NH2]	> 1000	
H-DTHICIAIF-NH2 [Hy-DTHICIAIF-NH2]	> 10000	
H-DTHFPIAICI-NH2 [Hy-DTHFPIAICI-NH2]	> 10000	

From patent publication US20170313754A1 (PROTAGONIST THERAPEUTICS, published 2017)
